Reference: FireProtDB (doi:10.1110/ps.041111405)
Several values for one entry are separate records, joined by “and”; a condition that tells them apart may be missing. Identical values can stand only once.

B1: Gamma-crystallin D, P07320 (parent)
chain: MGKITLYEDRGFQGRHYECSSDHPNLQPYLSRCNSARVDSGCWMLYEQPNYSGLQYFLRRGDYADHQQWMGLSDSVRSCRLIPHSGSHRIRLYEREDYRGQMIEFTEDCSCLQDRFRFNEIHSLNVLEGSWVLYELSNYRGRQYLLMPGDYRRYQDWGATNARVGSLRRVIDFS

Variants of: B1
Details: Homo sapiens; pH 7; 37 °C; GdnHCl; Fluorescence; Sodium phosphate 10 mM; transition: 3; structure 1HK0; whole UniProt chain shown

Variant | denaturant m value | denaturant midpoint (higher = more stable) | unfolding free energy | ddG of mutation (higher = less stable)
I82A | 3.7 kcal/mol/M and 3 kcal/mol/M | 1.5 M and 2.9 M | 5.3 kcal/mol and 8.7 kcal/mol | –
M44A | 3.7 kcal/mol/M and 2.8 kcal/mol/M | 2.2 M and 2.9 M | 7.7 kcal/mol and 8.1 kcal/mol | –
L145A | 3.9 kcal/mol/M and 2.9 kcal/mol/M | 1.6 M and 2.6 M | 6.5 kcal/mol and 7.5 kcal/mol | 1.2 kcal/mol and 1.4 kcal/mol
F57A | 3.9 kcal/mol/M and 3.2 kcal/mol/M | 1.6 M and 2.9 M | 6.1 kcal/mol and 9.3 kcal/mol | –
V132A | 3.7 kcal/mol/M and 3.1 kcal/mol/M | 1.3 M and 2.5 M | 5 kcal/mol and 7.8 kcal/mol | 2.7 kcal/mol and 1.1 kcal/mol
V170A | 4 kcal/mol/M | 2.5 M | 10.2 kcal/mol | -1.3 kcal/mol
